Experimental data taken from patent US20170321196A1, “ANALYTICAL AND DIAGNOSTIC METHODS UTILIZING SHIGELLA FLEXNERI APYRASE” (priority 2014, published 2017).
Where “and” joins values, the source holds several entries; their conditions need not be identical. Equal values may be shown once. Entries after “also recorded” stand apart in the source; their conditions may differ.

How the values were obtained:
rSFA = experiment: Inhibitor development: inhibition of rSFA; assay type: biochemical, Shigella flexneri
Description: After checking the rSFA inhibitory activity in buffer, it was verified with urine, where 10 μl were added with 80 μl of cell lysate reagent and 10 μmol/L of ATP. About 100 mM of MgSO4 and 1 mM of Na3VO4 were added in separate tubes and incubated for 10 min before measuring the light emission using firefly luciferase.

firefly luciferase = target: T1, firefly luciferase (Photinus pyralis, UniProt P08659); experiment: Inhibitor development: effect on luciferase; assay type: biochemical
T1 construct: purchased BioThema AB, Sweden ATP Kit SL
Description: After checking the rSFA inhibitory activity in buffer, it was verified with urine, where 10 μl were added with 80 μl of cell lysate reagent and 10 μmol/L of ATP. […]

[1] = ATP degradation by apyrase in buffer, firefly luciferase bioluminescent assay; assay type: biochemical; settings: for time to eliminate ATP: enzymes diluted 10× in Tris-EDTA Buffer; for ATP depletion rate: No serum (Negative control)
Description: (§1) Cuvettes contained 100 μL sample in a total volume of 1 mL containing ATP Reagent SL (BioThema AB, Sweden) in 0.07 mol/L Tris- EDTA Buffer and the reaction was started by injection of 10 μL 10 μmol/L ATP Standard. The initial apyrase activity was determined as described by Lundin and coworkers (Analytical Biochemistry 75, 611-620 (1976) and Methods in Enzymology vol 305, 346-370 (2000)) with some modifications. Bioluminescence was measured at every 10 s during 1 min, in the fully automatic 1251 Luminometer (LKB-Wallac, Turku, Finland). To this, 10 μl of 10 μmol/L ATP was added to determine the background ground luminescence. The temperature control was set to 25° C. and bioluminescence was measured from several cuvettes in parallel during 30 or 60 minutes and compared to residual ATP after various incubation times using rSFA and STA. This was repeated with rSFA and STA and a graph was plotted by keeping the ATP-degradation rate as internal control to determine the ATP-degradation efficiency of both of the enzyme sources.
(§2) Light emission from the firefly-luciferase reaction was measured at 25° C. in a 1251 Luminometer (LKB-Wallac; Finland) using the ATP Kit SL (BioThema AB, Sweden) according to the manufacture's instruction (in buffer experiment) or adding concentrated luciferase (in serum/urine experiments). Initially luciferase reaction follows first-order kinetics and the ATP Reagent SL in this kit produces light intensity proportional to the ATP concentration. A plot of the natural logarithm of the light intensity versus time yields a straight line with the slope representing the rate constant of the reaction. Starting concentration of STA, A6535, A6237 (Sigma-Aldrich) was adjusted similar to rSFA. BL-reaction was started automatically upon addition of 0.2 μmol/L ATP, and the light intensity was measured every 10 second for 10 minutes (in buffer experiment) or 30 minutes (in serum and urine experiments), in the reaction volume of 0.5 mL.

[2] = Elimination of extracellular ATP in serum, bioluminescent assay; assay type: biochemical; parameters: ATP depletion rate: unit not given beside the values; settings: for time after which no further ATP elimination: 10% serum, FIG. 8; for time to complete hydrolysis of ATP and its analogues: 100% crude serum, FIG. 6A
Description: as §1, §2

[3] = ATP elimination in urine, bioluminescent assay; assay type: biochemical; settings: for time to complete ATP elimination: after 4 subsequent injections of 10 μL 10 μmol/L ATP
Description: as §2

[4] = HPLC analysis of nucleotide degradation: ATP; assay type: biochemical; settings: for time to complete conversion of ATP: STA to ADP and AMP, rSFA to AMP
Description: (§3) To compare rSFA activity on nucleotides to that of STA, ATP, dATP, dTTP, dGTP and dCTP were incubated with the enzymes (same initial activity) for 5 min and 35 min and the resulting products were detected using high performance liquid chromatography (HPLC).
(§4) The dNTP Standard preparation was prepared to contain final concentration of 0.1 mM […]. Nucleosides ATP/dATP/dCTP/dGTP/dTTP were suspended in Tris-EDTA buffer and diluted 10 times with the mobile phase (70% acetonitrile, 30% ammonium acetate pH 5.35). The above-prepared nucleosides were individually incubated with equal amounts of rSFA and STA for 35 min at pH 7.75 and 5 μl of the mixture was injected into HPLC instrument (SeQuant ZIC®-pHILIC column, Merck Millipore) at a flow rate of 0.7 mL/min using a pump (Jasco PU-2089 Plus). Peaks were detected at 254 nm by UV-2075 Plus detector and the chromatographic separation was achieved using isocratic elution. Analysis was performed using Chrompass software, where each nucleotide/nucleoside was identified by comparison with retention time of the respective standards.

[5] = HPLC analysis of nucleotide degradation: dATP; assay type: biochemical
Description: as §3, §4

[6] = HPLC analysis of nucleotide degradation: dTTP; assay type: biochemical; settings: STA to TDP and TMP, rSFA to TMP
Description: as §3, §4

[7] = HPLC analysis of nucleotide degradation: dCTP; assay type: biochemical
Description: as §3, §4

[8] = Buffer optimization: rSFA activity after storage, bioluminescent ATP-elimination assay; assay type: physicochemical; settings: stored in Buffer 3 about 10 months at +4° C.; compared with Buffer 1 and 2
Description: Equal concentration of rSFA was stored in Buffer 1(20 mM Tris, 1 mM EDTA, 1% BSA, 25 mM MgSO4, pH 7.5), Buffer 2 (20 mM Tris, 25 mM MgSO4, 2.5% BSA, pH 7.5) and Buffer 3 (20 mM HEPES, 500 mM NaCl, 25 mM MgSO4, pH 7.5) for about 10 months at 4° C. Bioluminescence activity assay was performed as described below to detect the activity of rSFA after storage.

[9] = Hydrolysis of ADP and ATP/ADP mixture in urine; assay type: biochemical; settings: 10 μmol/L, FIG. 10
Description: as §2, with “BL-reaction was started automatically upon addition of 0.2 μmol/L ATP, and the light intensity was measured every 10 second for 10 minutes (in buffer experiment) or 30 minutes (in serum and urine experiments), in the reaction volume of 0.5 mL.” left out

[10] = ATP degradation by apyrase in buffer, firefly luciferase bioluminescent assay; assay type: biochemical
[11] = SFA activity across pH and in EDTA; assay type: biochemical
[12] = SFA stability to freeze-thaw and refrigerator storage; assay type: physicochemical; settings: crude form, without addition of stabilizers
Description: The rSFA samples were kept at 4° C., then frozen and freeze-thawed to check its stability. An effort was made to see if the rSFA could be used to prepare a reagent for the depletion of extraneous ATP in biological samples.

[13] = Undiluted serum (100% crude serum)

T1 sequence (P08659 whole entry): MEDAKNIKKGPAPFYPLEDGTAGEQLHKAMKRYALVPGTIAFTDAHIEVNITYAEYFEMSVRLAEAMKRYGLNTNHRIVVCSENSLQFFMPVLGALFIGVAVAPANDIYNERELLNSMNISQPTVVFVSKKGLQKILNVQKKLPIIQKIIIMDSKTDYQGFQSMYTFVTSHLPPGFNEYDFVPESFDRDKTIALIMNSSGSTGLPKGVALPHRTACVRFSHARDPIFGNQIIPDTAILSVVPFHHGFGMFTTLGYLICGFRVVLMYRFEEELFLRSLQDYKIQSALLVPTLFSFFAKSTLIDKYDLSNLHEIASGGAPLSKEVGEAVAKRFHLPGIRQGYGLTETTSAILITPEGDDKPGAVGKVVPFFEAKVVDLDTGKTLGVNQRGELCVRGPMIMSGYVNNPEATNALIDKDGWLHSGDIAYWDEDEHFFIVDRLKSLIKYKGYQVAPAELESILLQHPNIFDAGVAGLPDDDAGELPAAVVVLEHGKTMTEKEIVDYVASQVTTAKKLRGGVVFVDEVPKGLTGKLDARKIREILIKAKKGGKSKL

O=S(=O)([O-])[O-].[Mg+2] [MgSO4]
inhibition of rSFA activity (rSFA; 100 mM MgSO4): showed inhibitory action
inhibition of rSFA activity (rSFA; magnesium at 50 mM): completely inhibit
effect on luciferase activity (firefly luciferase; 100 mM MgSO4): affected the activity of luciferase
effect on luciferase activity (firefly luciferase; magnesium at 50 mM): decreased the activity of luciferase

[O]=[V]([O-])([O-])[O-] [ortho-vanadate]
inhibition of rSFA activity (rSFA; 1 mM ortho-vanadate (Na3VO4)): completely inhibited
effect on luciferase activity (firefly luciferase; 1 mM ortho-vanadate): did not affect luciferase at all

B1: rSFA: Recombinant Shigella flexneri apyrase with 6-His tag, amino-acid sequence SEQ ID NO: 4, expressed in E. coli BL21-A1 (protein, listed as Shigella flexneri)
chain: DIHMKTKNFLLFCIATNMIFIPSANALKAEGFLTQQTSPDSLSILPPPPAENSVVFQADKAHYEFGRSLRDANRVRLASEDAYYENFGLAFSDAYGMDISRENTPILYQLLTQVLQDSHDYAVRNAKEYYKRVRPFVIYKDATCTPDKDEKMAITGSYPSGHASFGWAVALILAEINPQRKAEILRRGYEFGESRVICGAHWQSDVEAGRLMGASVVAVLHNTPEFTKSLSEAKKEFEELNTPTNELTPHHHHHHRTMF
modifications: 6-His tag
rate constant of ATP elimination ([1]; FIG. 4): 3.87 min⁻¹
time to eliminate ATP ([1]; FIG. 4): ~10 min and ~15 min
ATP depletion rate [1]: 3.98
time after which saturated and ineffective in further reducing the ATP concentration ([1]; in buffer, FIG. 7): > 300 s
ATP depletion rate ([2]; 10% Diluted serum): 1.774
time after which no further ATP elimination [2]: > 30 min
time to complete hydrolysis of ATP and its analogues [2]: ~17 min
ATP depletion rate [2, 13]: 1.816
time to complete ATP elimination [3]: less than 3 min
time to complete conversion of ATP [4]: less than 5 min
time to full conversion of dATP into dAMP [5]: less than 5 min
time to conversion of dTTP [6]: less than 5 min
time to complete conversion of dCTP into CMP [7]: less than 5 min
activity after storage [8]: particularly good activity; also recorded: very good activity
change of activity with ADP or mixture of ADP and ATP [9]: no substantial difference; also recorded: not affected

B2: STA: Solanum tuberosum apyrase, commercially available potato apyrase from Sigma-Aldrich, SEQ ID NO: 9 (protein, listed as Solanum tuberosum)
chain: MLNQNSHFIFIILAIFLVLPLSLLSKNVNAQIPLRRHLLSHESEHYAVIFDAGSTGSRVHVFRFDEKLGLLPIGNNIEYFMATEPGLSSYAEDPKAAANSLEPLLDGAEGVVPQELQSETPLELGATAGLRMLKGDAAEKILQAVRNLVKNQSTFHSKDQWVTILDGTQEGSYMWAAINYLLGNLGKDYKSTTATIDLGGGSVQMAYAISNEQFAKAPQNEDGEPYVQQKHLMSKDYNLYVHSYLNYGQLAGRAEIFKASRNESNPCALEGCDGYYSYGGVDYKVKAPKKGSSWKRCRRLTRHALKINAKCNIEECTFNGVWNGGGGDGQKNIHASSFFYDIGAQVGIVDTKFPSALAKPIQYLNAAKVACQTNVADIKSIFPKTQDRNIPYLCMDLIYEYTLLVDGFGLNPHKEITVIHDVQYKNYLVGAAWPLGCAIDLVSSTTNKIRVASS
Initial activity [1]: 4.12 Units/mg protein
time to eliminate ATP ([1]; FIG. 4): > 60 min
ATP depletion rate [1]: 3.52
Remaining ATP activity after 1 min ([1]; after 1 min): 1.1876%
Remaining ATP activity after 17 min ([1]; after 17 min): 0.0367%
amount of ATP remaining lower in STA samples compared to rSFA (factor) ([1]; after one minute): ~2
ATP depletion rate ([2]; 10% Diluted serum): 2.429
time after which no further ATP elimination [2]: 6 min
time to complete hydrolysis of ATP and its analogues [2]: ~45 min
ATP depletion rate [2, 13]: 0.5536
time after which rate of action was hindered ([3]; FIG. 9): 3 min
time to complete ATP elimination [3]: > 20 min
cleavage of ATP to ADP and AMP ([4]; 5 min incubation): only partially cleaved
time to complete conversion of ATP [4]: 35 min
dATP remaining ([5]; after 35 min of incubation): more than 25%
time to conversion of dTTP [6]: 35 min
portion of dCTP converted into CDP and CMP ([7]; after 35 min): only half
change of activity with ADP or mixture of ADP and ATP [9]: considerably decreased
Remaining ATP activity after 91 min [10]: 0.0228%

B3: SFA: Apyrase derived from Shigella flexneri, recombinant or non-recombinant; native sequence SEQ ID NO: 10 (protein, listed as Shigella flexneri)
chain: MKTKNFLLFCIATNMIFIPSANALKAEGFLTQQTSPDSLSILPPPPAENSVVFQADKAHYEFGRSLRDANRVRLASEDAYYENFGLAFSDAYGMDISRENTPILYQLLTQVLQDSHDYAVRNAKEYYKRVRPFVIYKDATCTPDKDEKMAITGSYPSGHASFGWAVALILAEINPQRKAEILRRGYEFGESRVICGAHWQSDVEAGRLMGASVVAVLHNTPEFTKSLSEAKKEFEELNTPTNELTP
activity in high concentrations of EDTA [11]: remains to be active
pH range of very good activity [11]: 7.0-7.5
stability [12]: tolerates freeze-thaw-cycles and storage in solution at refrigerator temperatures
